19 molecules from patent US20260139048A1 (NANJING LEGEND BIOTECH, published 2026) can be followed below.

Changes are numbered by the printed parent chain.

As usually defined, the EC50 is the concentration at which the effect is half-maximal. Lower therefore signals greater potency. What is called Kd is the constant that tells how readily two partners part at equilibrium. Read a low Kd as a tighter complex. By koff is commonly meant the rate constant with which the complex falls apart. Higher therefore signals fast dissociation. The term kon denotes the second-order rate constant of association. The low end stands for slow association, the high end for fast association. In general, IC50 refers to the concentration that inhibits the measured activity by half.

To fix the notation:
T1: TIGIT on TIGIT-over expressing NFAT-Luc/Jurkat effector cells (GenScript reporter cell line) (UniProt Q495A1 22-244, limits assumed)
T1 sequence (looked up): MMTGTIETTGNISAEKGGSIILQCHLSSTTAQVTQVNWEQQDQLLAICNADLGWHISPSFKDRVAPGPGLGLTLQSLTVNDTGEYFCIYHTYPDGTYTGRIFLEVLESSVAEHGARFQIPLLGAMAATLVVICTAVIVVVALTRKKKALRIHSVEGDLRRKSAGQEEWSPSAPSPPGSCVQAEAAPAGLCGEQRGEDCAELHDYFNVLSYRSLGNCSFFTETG

T2: human TIGIT expressed on CHO-K1 cells (human, UniProt Q495A1 22-244)
T2 construct: whole, on cells; also called human TIGIT-CHO-K1 cells; human TIGIT over-expressing cell line
T2 sequence (looked up): T1 sequence (looked up)

T3: His-tagged human TIGIT (human, UniProt Q495A1 22-141)
T3 construct: SPR analyte; also called human TIGIT protein; not shown: His tag
T3 sequence: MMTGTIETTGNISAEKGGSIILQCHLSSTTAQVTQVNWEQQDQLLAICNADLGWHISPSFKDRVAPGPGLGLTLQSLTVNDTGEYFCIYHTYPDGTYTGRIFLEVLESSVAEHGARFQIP

B1: huTIGIT-19-1 (antibody, human IgG1, kappa, V domains shown)
VH: QVQLVQSGAEVKKPGASVKVSCKASGYTFTRYSMYWVRQAPGQGLEWIAFIDAYSGGSTYNQRFRGKATLTVDTSISTAYMELSRLRSDDTAVYYCARGGDYGWYLGVWGQGTLVTVSS
VL: DIQMTQSPSSLSASVGDRVTITCRPSENIYTYLSWYQQKPGKAPKLLIYNAKSLPSGVPSRFSGSGSGTDFTLTISSLQPEDFATYYCQHHYGNPLTFGQGTKVEIKR
notes: Humanized IgG; also called 19VH4.M9 + 19VL1.M4
B2: huTIGIT-19-2 (antibody, human IgG1, kappa, V domains shown)
VH: B1 VH
VL: B1 VL with P25A, E27Q, N28S, T31S
notes: Humanized IgG; also called 19VH4.M9 + 19VL1.M7
B3: huTIGIT-19-3 (antibody, human IgG1, kappa, V domains shown)
VH: B1 VH with N61A, R63K, R65Q
VL: B1 VL
notes: Humanized IgG; also called 19VH4.M10 + 19VL1.M4
B4: humanized TIGIT-6 antibody 6VH6 + 6VL1 (antibody, V domains shown)
VH: QVQLVQSGAEVKKPGASVKVSCKASGYTITENTMHWVRQAPGQRLEWIGGINPNNGGTSYNQQFKGRATLTVDTSASTAYMELSSLRSEDTAVYYCTRSSYYRYDLDYWGQGTTVTVSS
VL: DIQMTQSPSSLSASVGDRVTITCKASQDVKTALAWYQQKPGKAPKLLIYSASYRYTGVPSRFSGSGSGTDFTFTISSLQPEDIATYYCHQHYTTPWTFGGGTKLEIK
notes: Full-length IgG, tested as HEK293 supernatant
B5: humanized TIGIT-6 antibody 6VH5 + 6VL1 (antibody, V domains shown)
VH: B4 VH with V72R
VL: B4 VL
notes: as for B4
B6: humanized TIGIT-6 antibody 6VH6 + 6VL1.M1 (antibody, V domains shown)
VH: B4 VH
VL: B4 VL with K24Q, V29I
notes: as for B4
B7: humanized TIGIT-6 antibody 6VH6.M4 + 6VL1 (antibody, V domains shown)
VH: B4 VH with N55Q, N61S, Q63K, K65Q
VL: B4 VL
notes: as for B4
B8: humanized TIGIT-6 antibody 6VH6.M1 + 6VL1 (antibody, V domains shown)
VH: B4 VH with I29F, T33A
VL: B4 VL
notes: as for B4
B9: humanized TIGIT-6 antibody 6VH6.M3 + 6VL1 (antibody, V domains shown)
VH: B4 VH with N61S, Q63K, K65Q
VL: B4 VL
notes: as for B4
B10: humanized TIGIT-6 antibody 6VH6.M3 + 6VL1.M1 (antibody, V domains shown)
VH: B4 VH with N61S, Q63K, K65Q
VL: B4 VL with K24Q, V29I
notes: as for B4
B11: humanized TIGIT-19 antibody 19VH4.M9 + 19VL1 (antibody, V domains shown)
VH: B1 VH
VL: DIQMTQSPSSLSASVGDRVTITCRPSENIYTYLSWYQQKPGKAPKLLIYNAKTLPEGVPSRFSGSGSGTDFTLTISSLQPEDFATYYCQHHYGNPLTFGQGTKVEIK
notes: as for B4
B12: humanized TIGIT-19 antibody 19VH4 + 19VL1.M5 (antibody, V domains shown)
VH: B1 VH with T28A, T30S, A53P, S55N
VL: B11 VL with P25A, E27Q, T53S, E56S
notes: as for B4
B13: humanized TIGIT-19 antibody 19VH4.M4 + 19VL1 (antibody, V domains shown)
VH: B1 VH with T28A, T30S, A53P
VL: B11 VL
notes: as for B4
B14: humanized TIGIT-19 antibody 19VH4.M5 + 19VL1 (antibody, V domains shown)
VH: B1 VH with T28A, T30S, A53P, S55N, N61A, R63K, R65Q
VL: B11 VL
notes: as for B4
B15: humanized TIGIT-19 antibody 19VH4 + 19VL1.M6 (antibody, V domains shown)
VH: B1 VH with T28A, T30S, A53P, S55N
VL: B11 VL with P25A, E27Q, T31S, T53S, E56S
notes: as for B4
B16: humanized TIGIT-19 antibody 19VH4.M6 + 19VL1 (antibody, V domains shown)
VH: B1 VH with A53P
VL: B11 VL
notes: as for B4
B17: humanized TIGIT-19 antibody 19VH4 + 19VL1.M4 (antibody, V domains shown)
VH: B1 VH with T28A, T30S, A53P, S55N
VL: B11 VL with T53S, E56S
notes: as for B4
B18: humanized TIGIT-19 antibody 19VH4.M7 + 19VL1 (antibody, V domains shown)
VH: B1 VH with A53P, N61A, R63K, R65Q
VL: B11 VL
notes: as for B4
B19: humanized TIGIT-19 antibody 19VH4 + 19VL1.M7 (antibody, V domains shown)
VH: B1 VH with T28A, T30S, A53P, S55N
VL: B11 VL with P25A, E27Q, N28S, T31S, T53S, E56S
notes: as for B4

T4 sequence (A0A7N9I9V4 entry or part of it): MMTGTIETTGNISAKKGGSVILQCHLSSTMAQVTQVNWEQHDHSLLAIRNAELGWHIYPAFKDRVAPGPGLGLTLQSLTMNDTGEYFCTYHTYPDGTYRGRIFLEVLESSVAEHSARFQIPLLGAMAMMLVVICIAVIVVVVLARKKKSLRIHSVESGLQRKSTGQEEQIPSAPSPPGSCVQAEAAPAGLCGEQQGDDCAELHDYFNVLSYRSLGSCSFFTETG

In one assay the target is T1, TIGIT on TIGIT-over expressing …. Kind of assay: cell-based or functional assay.
With B1, the “Bottom (RLU)” value is 53900 RLU, the “EC50” value was determined as 2.05 nM and the “Top (RLU)” value came out at 144000 RLU.

B2: the “Bottom (RLU)” value worked out at 55200 RLU, the “EC50” value amounted to 2.39 nM and the “Top (RLU)” value was determined as 155000 RLU.

As for B3, the “Bottom (RLU)” value was determined as 53700 RLU, the “EC50” value was 2.65 nM and the “Top (RLU)” value was determined as 142000 RLU.

Another assay deals with T2, human TIGIT expressed on CHO-K1 cells. The assay can be described thus: flow cytometry on CHO-K1 cells expressing human TIGIT. Background: A flow cytometer gives signals particle by particle.
Consider B1, for which the half-maximal effective concentration (EC50) was 0.294 nM.

Molecule B2 yielded an EC50 of 0.256 nM.

Consider B3, for which the concentration giving a half-maximal response (EC50) came out at 0.196 nM.

The next assay addresses T3, His-tagged human TIGIT. The assay can be described thus: SPR experiment 1, IgG from HEK293 supernatant captured. On the technique in general: SPR reads the build-up and loss of mass on a sensor chip optically.
On to B4, for which the Kd was determined as 0.3 nM, the off-rate constant (koff) amounted to 0.00014 s⁻¹ and the on-rate constant (kon) was found to be 470000 M⁻¹ s⁻¹.

Turning to B5, binding was put at a Kd of 0.35 nM, the koff was determined as 0.00011 s⁻¹ and the kon came to 310000 M⁻¹ s⁻¹.

Molecule B6 had a Kd of 0.24 nM, a dissociation rate constant (koff) of 0.00013 s⁻¹ and a kon of 530000 M⁻¹ s⁻¹.

B7 gave a dissociation constant Kd of 0.65 nM, a dissociation rate constant (koff) of 0.00015 s⁻¹ and a kon of 230000 M⁻¹ s⁻¹.

B8: the Kd was determined as 0.63 nM, the off-rate (koff) was 0.00026 s⁻¹ and the kon is 410000 M⁻¹ s⁻¹.

Regarding B9, the Kd is 0.35 nM, the koff is 0.00012 s⁻¹ and the kon was 350000 M⁻¹ s⁻¹.

For the next assay, the target named is T3, His-tagged human TIGIT. Kind of assay: SPR experiment 2, IgG from HEK293 supernatant captured.
In turn, B10 registered a dissociation constant (Kd) of 0.5 nM, an off-rate (koff) of 0.00016 s⁻¹ and an on-rate constant (kon) of 320000 M⁻¹ s⁻¹.

The target in the next assay is T3, His-tagged human TIGIT. The description is as above. The source holds these as a separate data set.
For the molecule B11, binding was put at a Kd of 0.22 nM, the koff was determined as 0.00023 s⁻¹ and the kon was determined as 1.1e+06 M⁻¹ s⁻¹.

Take B12: the equilibrium dissociation constant (Kd) was 0.081 nM, the off-rate (koff) came out at 8.7e-05 s⁻¹ and the on-rate constant (kon) came to 1.1e+06 M⁻¹ s⁻¹.

Turning to B13, the dissociation constant (Kd) stood at 0.12 nM, the off-rate constant (koff) was determined as 0.00013 s⁻¹ and the on-rate constant (kon) worked out at 1.1e+06 M⁻¹ s⁻¹.

As to B14, the Kd worked out at 0.16 nM, the dissociation rate constant (koff) came out at 0.0002 s⁻¹ and the kon stood at 1.3e+06 M⁻¹ s⁻¹.

B15 returned a Kd of 0.15 nM, a koff of 0.00015 s⁻¹ and a kon of 1e+06 M⁻¹ s⁻¹.

With B16, binding was put at a Kd of 0.2 nM, the koff was 0.00021 s⁻¹ and the kon amounted to 1e+06 M⁻¹ s⁻¹.

As for B17, the affinity, expressed as Kd, was 0.023 nM; the dissociation rate constant (koff) came out at 2.7e-05 s⁻¹; the association rate constant (kon) worked out at 1.2e+06 M⁻¹ s⁻¹.

B18 displayed a Kd of 0.3 nM, a koff of 0.00032 s⁻¹ and an on-rate (kon) of 1.1e+06 M⁻¹ s⁻¹.

With B19, binding was characterised by a dissociation constant (Kd) of 0.13 nM, the off-rate constant (koff) came to 0.00017 s⁻¹ and the kon is 1.3e+06 M⁻¹ s⁻¹.

The next assay has as its target T4, cynomolgus TIGIT expressed on CHO-K1 cells (cynomolgus, UniProt A0A7N9I9V4 89-312).
T4 construct: whole, on cells; also called cynomolgus TIGIT over-expressing cell line
The assay can be described thus: flow cytometry on CHO-K1 cells expressing cynomolgus TIGIT.
In the case of B1, the EC50 was 0.473 nM.

With B2, the concentration for a half-maximal effect (EC50) came to 0.44 nM.

In the case of B3, the EC50 came out at 0.384 nM.

A further assay has as its target T3, His-tagged human TIGIT. The assay can be described thus: SPR (Biacore T200), antibody captured, His-tagged TIGIT analyte.
Regarding B1, the dissociation constant Kd is 0.16 nM, the off-rate constant (koff) is 0.00019 s⁻¹ and the association rate constant (kon) turned out to be 1.1e+06 M⁻¹ s⁻¹.

Take B2: the Kd is 0.19 nM, the off-rate constant (koff) was 0.00021 s⁻¹ and the kon was 1.1e+06 M⁻¹ s⁻¹.

In turn, B3 displayed a dissociation constant Kd of 0.28 nM, a koff of 0.0003 s⁻¹ and a kon of 1.1e+06 M⁻¹ s⁻¹.

In another assay the target is T5, His-tagged cynomolgus TIGIT (cynomolgus, UniProt A0A7N9I9V4 89-209).
T5 construct: SPR analyte; also called cynomolgus TIGIT protein; not shown: His tag
T5 sequence (A0A7N9I9V4 entry or part of it): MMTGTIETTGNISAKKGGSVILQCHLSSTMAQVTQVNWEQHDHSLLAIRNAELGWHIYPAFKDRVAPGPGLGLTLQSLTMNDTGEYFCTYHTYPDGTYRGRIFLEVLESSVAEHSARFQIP
Described as above.
B1 registered a dissociation constant Kd of 0.047 nM, an off-rate (koff) of 3.7e-05 s⁻¹ and a kon of 790000 M⁻¹ s⁻¹.

As for B2, binding was characterised by a dissociation constant (Kd) of 0.055 nM, the off-rate (koff) was 5.2e-05 s⁻¹ and the association rate constant (kon) was determined as 950000 M⁻¹ s⁻¹.

As for B3, the dissociation constant (Kd) is 0.054 nM, the off-rate constant (koff) stood at 4.1e-05 s⁻¹ and the association rate constant (kon) is 760000 M⁻¹ s⁻¹.

The next assay has as its target T2, human TIGIT expressed on CHO-K1 cells. The assay can be described thus: flow cytometry competition: biotinylated CD155-Fc on human TIGIT-CHO-K1 cells.
Regarding B1, the concentration for half-maximal inhibition (IC50) was determined as 0.22 nM.

Regarding B2, the half-inhibitory concentration (IC50) worked out at 0.24 nM.

Take B3: the IC50 was determined as 0.21 nM.
